Experimental data from publication PMC6550530.

B1: atpI RNA oligonucleotide (ssRNA)
RNA: AAAAUUGUAACUUUUUGCGGUGUUUUCAUUGCAAUCAGUUGAUGCCACCGUAUAAUUUUCGCCAAUUUCCCAGUCCGAAAAAGCGGUUCGAGCUGUGGUGAUUACUAGAGGUAAGAAUAC
B2: varA RNA oligonucleotide (ssRNA)
RNA: AAGUGUGGAGAUACAAGUUUGAUUAGUGUUUUCCUUGUAGAUGAUCACGAGCUGGUUCGCACAGGGAUACGACGUAUUAUUGAAGACGUCCGUGGAAUGAAAGUAGCAGGGGAAGCUGAC

Assays:
CsrA [1] = biological target: T1, CsrA (Vibrio cholerae, UniProt Q9KUH3 1-65); assay: EMSA; CsrA up to 40 nM; LightShift chemiluminescent RNA EMSA kit per manufacturer, 10 ul volume; 12% nondenaturing PAGE; buffer, salt, pH and temperature not stated; settings: protein: recombinant; tags: N-terminal His-TEV tag removed by TEV protease; chain copies: 2; label: 5' biotin
T1 sequence (Q9KUH3 whole entry): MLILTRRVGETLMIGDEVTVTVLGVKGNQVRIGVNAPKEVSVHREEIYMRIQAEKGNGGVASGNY

CsrA [2] = biological target: T1, CsrA; assay: EMSA; shift seen at 1.6 nM CsrA, increasing at 8 and 40 nM; LightShift chemiluminescent RNA EMSA kit per manufacturer, 10 ul volume; 12% nondenaturing PAGE; buffer, salt, pH and temperature not stated; settings: protein: recombinant; tags: N-terminal His-TEV tag removed by TEV protease; chain copies: 2; label: 5' biotin

Binder | binding result (CsrA [1]) | binding result (CsrA [2])
B1 | no binding | 
B2 |  | binds
